The values that follow come from patent publication US9725518B2, “Antibodies that bind to Jagged 1” (Cancer Research Technology Limited, priority 2013, dated 2017).

Data set [1] deals with T1, N1 binding to cell surface expressed hJ1 (Homo sapiens, UniProt P78504).
T1 construct: cell expressed full length human J1 (hJ1; HEK293 transfectants); expressed in transfected cells; host or cells: HEK293
The data set can be described thus: Notch binding blocking assay (FACS): N1 EGF11-13 beads staining human J1-expressing cells. More on the design: key: +: Complete blocking; X: No blocking. The protocol: To functionally identify mAbs with the capacity to disrupt the J1-N1 protein:protein interaction, hybridoma culture supernatants were tested in a FACS-based binding assay. Biotinylated soluble human N1 EGF11-13 recombinant protein was bound to avidin-coated beads and used to stain J1-expressing cells in the presence or absence of each mAb that recognised cell surface hJ1 by FACS. […] The four blocking antibodies of the invention were also able to block the binding of recombinant […] to a biotin-tagged J1 DSL-EGF3 recombinant protein in an ELISA assay (FIG. 1B). […] The four blocking mAbs of the invention were purified from serum-free culture supernatants and equal concentrations of purified antibodies were used to compare their activity in subsequent assays (unless hybridoma supernatant was specified). Sequence conservation across the DSL domain raised the possibility that the J1 mAbs may also be able to bind the Jagged 2 (J2) protein. Antibody binding specificity was initially tested by immunocytochemical labelling of cytospin samples of hJ1 and hJ2 transfectants (FIG. 2). All antibodies stained J1 transfectants but none stained the J2 transfected cells, and J2 expression in the same experiment was confirmed using a commercial anti-J2 antibody. The specificity of the purified mAbs was further investigated in mammalian cells transfected with hJ2, human Delta-like ligand 4 (hDLL4), or mJ1 (FIG. 3). Transfectants were FACS stained with 10 μg/ml of each of the four blocking mAbs.
To test the blocking efficiencies of the J1 mAbs, purified mAbs were titrated to determine the concentration required to block recombinant N1 binding to cell surface expressed hJ1. Beads coated with a bacterially-expressed N1 EGF11-13 protein were used to stain the hJ1-expressing cells in the presence of various concentrations of mAbs.
The FACS-based binding assay using biotinylated soluble human N1 EGF11-13 recombinant protein bound to avidin-coated fluorescent beads to stain J1-expressing cells was performed using a dilution series of each variant mAb to test their ability to block J1 binding to N1 by FACS (Table 7). […] Thus 12/16 J1-65D1 variants V1-12 and all J1-183D variants have the desired binding and blocking activity.
Human N1 EGF11-13 (411-526) was expressed in E. coli, refolded in vitro and labelled with purple fluorescent avidin-coated beads (Spherotech) as previously described. HEK293 cells transfected with human J1 or B16F10 cells transfected with mouse J1 were stained with N1 fluorescent beads in the presence of J1 antibody supernatants or purified antibody (murine, chimeric or humanised) diluted in HBBS/10% FCS. Cells were washed and re-suspended in staining buffer before being analysed with a FACSCalibur and data analysis with CellQuest. HEK293 cells transfected with human Jagged 2 and B16F10 cells transfected with human and mouse DLL4 were stained similarly to test blocking specificity.

The nature of data set [2]: Soluble aggregates of transiently expressed antibodies. Format: physicochemical. Particulars: Protein A purified antibody. The text has this:
The protein yield of these antibodies, their levels of soluble aggregates and their binding affinity to the immunogen (J1-DE3) are illustrated in (Table 6).

Data set [3] has as its system MDA-MB-231 spheroids. Nature of the data set: Spheroid assay (3-D growth), MDA-MB-231. It is filed as cell-based, human. Particulars: humanised variants 5 μg/ml. The text has this: Similar findings were also reported for the Merck anti-N1 mAbs when tested on the LS-1034 cell line. As cell-cell contact is required to activate Notch signalling a spheroid-based 3-D growth model was used to test the ability of the J1 mAbs to block tumour growth. Furthermore, the 3-D model better mimics in vivo conditions including hypoxia and acidosis, allowing evaluation of the mAbs effect in a more realistic setting. Spheroids were generated from MDA-MB-231 breast cancer cells and the ability of different concentrations of the J1-65D mAb to inhibit their growth was evaluated.
Cells were harvested and resuspended in 2.5% Matrigel (BD)-complete DMEM medium. Cell suspension was plated on low-adherence 96-well plates (Corning) (200 μl/well) and spheroids, of approximately fixed cell number (5×10^3 cells for MDA-MB-231 and MDA-MB-468 cell lines; 2×10^3 for MCF7 cells) were then generated by spinning plates at 1800 rpm for 10 minutes. The following day, pictures of the spheroids were taken (day 1) and treatments were added (mAbs were used at 10 μg/ml [5 μg/ml for humanised antibodies] while DBZ was used at the concentration of 100 nM). In some experiments Paclitaxel (1 nM) and Doxorubicin (20 nM) were used in combination with J1-65D mAb treatment. Every 2 days pictures were taken and half of the medium was replaced with fresh one containing mAb/drug. At the end of the experiment, spheroids were either lysed for RNA extraction, were processed and paraffin-embedded for immunohistochemical analysis or were dissociated by pipetting and trypsinization into single cell suspensions for FACS analysis. Spheroid size was evaluated by image analysis using ImageJ software.

The mark [4] stands for this setting: final antibody concentration 0.2 μg/ml.
Where [5] appears, read: final antibody concentration 0.4 μg/ml.
Where [6] appears, read: final antibody concentration 0.6 μg/ml.
Setting [7] is: final antibody concentration 1.0 μg/ml.

T1 sequence (P78504 34-1218): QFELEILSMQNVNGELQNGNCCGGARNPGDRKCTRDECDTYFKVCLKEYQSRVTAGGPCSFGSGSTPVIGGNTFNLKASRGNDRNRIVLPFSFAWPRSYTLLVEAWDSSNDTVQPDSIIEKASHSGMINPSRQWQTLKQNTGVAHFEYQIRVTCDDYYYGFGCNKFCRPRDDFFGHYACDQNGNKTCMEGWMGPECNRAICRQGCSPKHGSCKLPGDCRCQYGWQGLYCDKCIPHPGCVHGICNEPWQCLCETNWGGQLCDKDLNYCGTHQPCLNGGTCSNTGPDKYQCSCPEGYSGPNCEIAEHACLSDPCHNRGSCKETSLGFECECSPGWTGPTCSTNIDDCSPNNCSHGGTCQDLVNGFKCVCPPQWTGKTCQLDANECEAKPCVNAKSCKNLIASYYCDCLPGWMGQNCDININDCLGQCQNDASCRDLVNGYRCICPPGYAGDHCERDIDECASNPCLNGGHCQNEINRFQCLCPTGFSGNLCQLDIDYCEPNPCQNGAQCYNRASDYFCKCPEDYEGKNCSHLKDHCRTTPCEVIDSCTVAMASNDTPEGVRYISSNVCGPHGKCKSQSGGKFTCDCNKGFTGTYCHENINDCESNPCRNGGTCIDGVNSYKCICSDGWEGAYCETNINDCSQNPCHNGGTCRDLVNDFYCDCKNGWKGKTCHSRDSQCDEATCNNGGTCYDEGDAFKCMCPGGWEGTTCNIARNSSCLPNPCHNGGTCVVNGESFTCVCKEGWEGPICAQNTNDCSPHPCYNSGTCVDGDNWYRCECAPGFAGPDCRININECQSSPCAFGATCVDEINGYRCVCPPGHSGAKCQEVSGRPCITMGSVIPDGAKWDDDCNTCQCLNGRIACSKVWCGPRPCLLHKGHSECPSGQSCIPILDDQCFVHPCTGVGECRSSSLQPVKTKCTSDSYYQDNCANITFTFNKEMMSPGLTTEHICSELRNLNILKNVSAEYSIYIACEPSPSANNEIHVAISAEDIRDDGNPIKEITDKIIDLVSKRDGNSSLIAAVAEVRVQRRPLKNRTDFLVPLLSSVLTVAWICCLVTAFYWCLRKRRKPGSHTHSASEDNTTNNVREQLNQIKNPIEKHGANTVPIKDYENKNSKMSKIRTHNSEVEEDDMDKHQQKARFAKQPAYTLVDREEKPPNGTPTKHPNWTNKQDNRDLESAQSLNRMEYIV

B1: J1-65D chimeric: chimeric antibody with unaltered CDRs: J1-65D_VL + J1-65D_VH (antibody, V domains shown)
VL: DIQLTQSPASLSASVGETVTITCRASGNIHNYLAWYQQKQGKSPQLLVYNAKTLADDIPSRFSGSGSGTQYSLKINSLQPEDFGSYYCQHFWSAPWTFGGGTKLEIK
VH: QVQLQQPGAELVRPGASVKLSCKALGYTFTDYEMHWVKETPVHGLEWIGAIQPGGGGTAYNQKFKGKATLTADKSSSTAYMELSSLTSEDSAVYYCTRRGYDDYPFAYWGQGTLVTVSS
Take B1: the “Blocking of Notch1 binding to cell surface Jagged 1” value (“Blocking of Notch1 binding” below) is given as “X” in data set [1] (setting [4]), “+ (Complete blocking)” in data set [1] (setting [5]), “+ (Complete blocking)” in data set [1] (setting [6]) and “+ (Complete blocking)” in data set [1] (setting [7]). For the same molecule, in data set [2], the “% soluble aggregate” value was 0%.

B2: J1-183D variant 15: humanised/de-immunised J1-183D: J1-183D_VL_4 + J1-183D_VH_3 (antibody, V domains shown)
VH: QVQLVQSGAELKKPGASVKVSCKVSGYAFTDYAIHWVRQAPGQGLEWMGIINTYYGDSKYAQKFQGRVTMTVDTSTSTAYMELSSLRSEDTAVYYCARGYDGFAYWGQGTLVTVSSASTKGP
VL: DIQMTQSPSSLSASVGDRVTITCRTSENIYSYLTWYQQKPGKAPKLLIYHAKILDSGVPSRFSGSGSGTDFTLTISSLQPEDFATYYCQHHYDIPWTFGGGTKLEIKRT
B2: in data set [3], the spheroid growth inhibition entry is “increasingly less effect”. Besides, the “Blocking of Notch1 binding” value in data set [1] (setting [4]) is given as “X”; in data set [1] (setting [5]), “+ (Complete blocking)”; in data set [1] (setting [6]), “+ (Complete blocking)”; in data set [1] (setting [7]), “+ (Complete blocking)”. Moreover, the “% soluble aggregate” value in data set [2] stood at 2.21%.

B3: J1-183D variant 16: humanised/de-immunised J1-183D: J1-183D_VL_4 + J1-183D_VH_4 (antibody, V domains shown)
VH: QVQLVQSGAEVKKPGASVKVSCKASGYTFTDYAIHWVRQAPGQGLEWMGIINTYYGDSKYAQKFQGRVTMTVDTSTSTAYMELSSLRSEDTAVYYCARGYDGFAYWGQGTLVTVSSASTKGP
VL: DIQMTQSPSSLSASVGDRVTITCRTSENIYSYLTWYQQKPGKAPKLLIYHAKILDSGVPSRFSGSGSGTDFTLTISSLQPEDFATYYCQHHYDIPWTFGGGTKLEIKRT
With B3, the “Blocking of Notch1 binding” value in data set [1] (setting [4]) is listed as “X”; in data set [1] (setting [5]), “+ (Complete blocking)”; in data set [1] (setting [6]) it was “+ (Complete blocking)”; in data set [1] (setting [7]), “+ (Complete blocking)”. Moreover, the “% soluble aggregate” value in data set [2] is 0.72%.

B4: J1-183D variant 12: humanised/de-immunised J1-183D: J1-183D_VL_3 + J1-183D_VH_4 (antibody, V domains shown)
VH: QVQLVQSGAEVKKPGASVKVSCKASGYTFTDYAIHWVRQAPGQGLEWMGIINTYYGDSKYAQKFQGRVTMTVDTSTSTAYMELSSLRSEDTAVYYCARGYDGFAYWGQGTLVTVSSASTKGP
VL: DIQMTQSPSSLSASVGDRVTITCRTSENIYSYLTWYQQKPGKAPKLLIYNAKILDSGVPSRFSGSGSGTDFTLTISSLQPEDFATYYCQHHYDIPWTFGGGTKLEIKRT
Consider B4, for which the spheroid growth inhibition entry in data set [3] was “increasingly less effect”. Besides, the “Blocking of Notch1 binding” value in data set [1] (setting [4]) is listed as “X”; in data set [1] (setting [5]) it was “+ (Complete blocking)”; in data set [1] (setting [6]), “+ (Complete blocking)”; in data set [1] (setting [7]) it was “+ (Complete blocking)”. In addition, the “% soluble aggregate” value in data set [2] came out at 0.66%.

B5: J1-183D variant 14: humanised/de-immunised J1-183D: J1-183D_VL_4 + J1-183D_VH_2 (antibody, V domains shown)
VH: QVQLVQSGAELKKPGASVKVSCKVSGYAFTDYAIHWIRQAPGQGLEWMGIINTYYGDSKYAQKFQGRVTMTVDTSTSTAYMELSSLRSEDTAVYYCARGYDGFAYWGQGTLVTVSSASTKGP
VL: DIQMTQSPSSLSASVGDRVTITCRTSENIYSYLTWYQQKPGKAPKLLIYHAKILDSGVPSRFSGSGSGTDFTLTISSLQPEDFATYYCQHHYDIPWTFGGGTKLEIKRT
For B5, the “Blocking of Notch1 binding” value is recorded as “X” in data set [1] (setting [4]), “+ (Complete blocking)” in data set [1] (setting [5]), “+ (Complete blocking)” in data set [1] (setting [6]) and “+ (Complete blocking)” in data set [1] (setting [7]). In addition, the “% soluble aggregate” value in data set [2] came out at 3.02%.
